The text below walks through data of patent US20240191188A1 (JUNO THERAPEUTICS, published 2024).

The target in this assay is T1, soluble oligomeric streptavidin mutein (oligomer of Strep-tactin, n≥3, crosslinked with sulfo-SMCC and … (Streptomyces avidinii, UniProt P22629 38-163, chemically crosslinked with sulfo-SMCC and iminothiolan)).
T1 construct: Oligomers of homo-tetramers separated from monomeric and dimeric mutein by size exclusion chromatography; no single molecular weight; also called soluble oligomeric Strep-tactin; oligomeric mutein streptavidin
Nature of the assay: mixing of peptide-tagged Fab with soluble oligomeric streptavidin mutein at room temperature.

B1: αCD28 Fab fragment derived from the monoclonal anti-human CD28 antibody CD28.3, heavy chain carboxy-terminally fused to the Twin-Strep-tag (monomeric) (Fab)
heavy (part 1 of 2): LQQSGAELVKPGASVRLSCKASGYTFTEYIIHWIKLRSGQGLEWIGWFYPGSNDIQYNAKFKGKATLTADKSSSTVYMELTGLTSEDSAVYFCARRDDFSGYDALPYWGQGTMVTV
heavy (part 2 of 2): not shown
light: DIQMTQSPASLSVSVGETVTITCRTNENIYSNLAWYQQKQGKSPQLLIYAATHLVEGVPSRFSGSGSGTQYSLKITSLQSEDFGNYYCQHFWGTPCTFGGGTKLEIKR
notes: Recombinantly produced in E. coli; also called anti-CD28 Fab fragment; αCD28 Fab fragment of the antibody 28.3; not shown: human kappa light chain constant domain
For the molecule B1, the binding result was “binds”.
